# According to US20090170763A1 (KENJI KANGAWA, published 2009):
# Read-outs that look alike come from different tables or passages of the source. Square brackets hold non-standard residues; d marks the D form. Ends that are not written are not given here. * marks the point of attachment. NMeF = CN[C@@H](Cc1ccccc1)C(=O)O; NMeL = CN[C@@H](CC(C)C)C(=O)O; Decanoyl = CCCCCCCCCC(=O)*; Octanoyl = CCCCCCCC(=O)*; Hexanoyl = CCCCCC(=O)*; Ava = NCCCCC(=O)O; Octyl = CCCCCCCC*
# Experiments:
# [1] = molecular target: amino-terminal antibody (anti-[C-Cys]-rat ghrelin [1-11] antigen); test: radioimmunoassay: inhibition of binding of radioisotope-labeled rat ghrelin to the amino-terminal antibody
# [2] = molecular target: T1, rat GHS-R (GHS receptor) expressed on CHO-GHSR62 cells (rat, UniProt O08725 1-364); test: cell-based or functional assay
# [3] = molecular target: T1, rat GHS-R (GHS receptor) expressed on …; test: cell-based or functional assay; remark: listed apart in the source
# [4] = molecular target: T1, rat GHS-R (GHS receptor) expressed on …; test: cell-based or functional assay; remark: listed apart in the source
# [5] = molecular target: T1, rat GHS-R (GHS receptor) expressed on …; test: cell-based or functional assay; remark: listed apart in the source
# [6] = molecular target: T1, rat GHS-R (GHS receptor) expressed on …; test: cell-based or functional assay; remark: listed apart in the source
# [7] = molecular target: T1, rat GHS-R (GHS receptor) expressed on …; test: cell-based or functional assay; remark: listed apart in the source
# [8] = molecular target: T1, rat GHS-R (GHS receptor) expressed on …; test: cell-based or functional assay; remark: listed apart in the source
# [9] = molecular target: T1, rat GHS-R (GHS receptor) expressed on …; test: cell-based or functional assay; remark: listed apart in the source
# [10] = molecular target: T1, rat GHS-R (GHS receptor) expressed on …; test: cell-based or functional assay; remark: listed apart in the source
# [11] = molecular target: T1, rat GHS-R (GHS receptor) expressed on …; test: cell-based or functional assay; remark: listed apart in the source
# T1 sequence (O08725 whole entry): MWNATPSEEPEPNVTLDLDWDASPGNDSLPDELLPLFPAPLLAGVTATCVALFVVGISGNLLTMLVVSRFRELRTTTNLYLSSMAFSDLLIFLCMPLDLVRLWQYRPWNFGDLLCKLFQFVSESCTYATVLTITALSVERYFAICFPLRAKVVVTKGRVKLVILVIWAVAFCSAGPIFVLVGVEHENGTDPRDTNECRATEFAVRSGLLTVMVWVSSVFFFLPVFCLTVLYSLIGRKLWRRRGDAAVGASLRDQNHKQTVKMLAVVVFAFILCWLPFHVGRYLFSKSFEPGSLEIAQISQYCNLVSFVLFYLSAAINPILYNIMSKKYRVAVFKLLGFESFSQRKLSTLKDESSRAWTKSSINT
# human ghrelin (peptide), sequence (peptide): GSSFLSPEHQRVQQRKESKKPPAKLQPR
molecule,measurement,setting,value
human ghrelin (peptide),cross-reactivity,[1],100%
GSS(Octanoyl)FLSPEHQKAQQRKESKKPPAKLQPR [rat ghrelin],Ca-releasing activity EC50,[2],2.5 nM
same,EC50 value,[3],1.5 nM
same,Ca-releasing activity EC50,[4],1.5 nM
same,cross-reactivity,[1],100%
GSS(Hexanoyl)FLSPEHQKAQQRKESKKPPAKLQPR [[Ser^3(Hexanoyl)]-rGhrelin],"Ca-releasing activity (EC50, nM)",[5],16 nM
same,Ca-releasing activity EC50,[6],16 nM
same,cross-reactivity,[1],0.3%
GSS(Decanoyl)FLSPEHQKAQQRKESKKPPAKLQPR [[Ser^3(Decanoyl)]-rGhrelin],"Ca-releasing activity (EC50, nM)",[5],2.6 nM
same,Ca-releasing activity EC50,[6],1.7 nM
same,cross-reactivity,[1],20%
"[Ava]S(Octyl)[NMeF][NMeL]-NH2 [[N-Aminopentanoyl,Ser^3(Octyl),MePhe^4,MeLeu^5]-Ghrelin (3-5)-amide]",EC50,[2],86 nM
same,Activity EC50,[7],82 nM
GSS(Octanoyl)FLSPEHQRVQQR [hGhrelin (1-15)],"Ca-releasing activity (EC50, nM)",[5],7 nM
same,Ca-releasing activity EC50,[8],7 nM
GSS(Octanoyl)FLSPEHQKAQQR [rGhrelin (1-15)],"Ca-releasing activity (EC50, nM)",[5],8.6 nM
same,Ca-releasing activity EC50,[8],8.6 nM
KESKKPPAKLQPR (not fully specified) [Ghrelin (16-28)],"Ca-releasing activity (EC50, nM)",[5],> 10000 nM
same,Ca-releasing activity EC50,[8],> 10000 nM
GSS(Octanoyl)FLSPEHQKAQRKESKKPPAKLQPR [rat ghrelin-27],"Ca-releasing activity (EC50, nM)",[5],2.8 nM
same,Ca-releasing activity EC50,[8],1.5 nM
GSS(Octanoyl)FLSPEH-NH2 (N-terminus assumed; SMILES CCCCCCCC(=O)OC[C@H](NC(=O)[C@H](CO)NC(=O)CN)C(=O)N[C@@H](Cc1ccccc1)C(=O)N[C@@H](CC(C)C)C(=O)N[C@@H](CO)C(=O)N1CCC[C@H]1C(=O)N[C@@H](CCC(=O)O)C(=O)N[C@@H](Cc1c[nH]cn1)C(N)=O) [Ghrelin (1-9)-amide],Ca-releasing activity EC50,[4],5.4 nM
"GS(Octanoyl)SFLSPEH-NH2 (N-terminus assumed; SMILES CCCCCCCC(=O)OC[C@H](NC(=O)CN)C(=O)N[C@@H](CO)C(=O)N[C@@H](Cc1ccccc1)C(=O)N[C@@H](CC(C)C)C(=O)N[C@@H](CO)C(=O)N1CCC[C@H]1C(=O)N[C@@H](CCC(=O)O)C(=O)N[C@@H](Cc1c[nH]cn1)C(N)=O) [[Ser^2(Octanoyl), Ser^3]-Ghrelin (1-9)-amide]",Ca-releasing activity EC50,[4],1100 nM
GS(Octanoyl)S(Octanoyl)FLSPEH-NH2 [[Ser^2(Octanoyl)]-Ghrelin (1-9)-amide],Ca-releasing activity EC50,[4],1400 nM
"Octanoyl-GSSFLSPEH-NH2 (SMILES CCCCCCCC(=O)NCC(=O)N[C@@H](CO)C(=O)N[C@@H](CO)C(=O)N[C@@H](Cc1ccccc1)C(=O)N[C@@H](CC(C)C)C(=O)N[C@@H](CO)C(=O)N1CCC[C@H]1C(=O)N[C@@H](CCC(=O)O)C(=O)N[C@@H](Cc1c[nH]cn1)C(N)=O) [[N-Octanoyl, Ser^3]-Ghrelin (1-9)-amide]",Ca-releasing activity EC50,[4],> 10000 nM
[Ava]S(Octanoyl)FLSP-NH2 (N-terminus assumed; SMILES CCCCCCCC(=O)OC[C@H](NC(=O)CCCCN)C(=O)N[C@@H](Cc1ccccc1)C(=O)N[C@@H](CC(C)C)C(=O)N[C@@H](CO)C(=O)N1CCC[C@H]1C(N)=O) [[N-Aminopentanoyl]-Ghrelin (3-7)-amide],Ca-releasing activity EC50,[9],3.4 nM
Ac-GSS(Octanoyl)FLSPEHQ [[N-Acetyl]-Ghrelin (1-10)],Ca-releasing activity EC50,[9],> 10000 nM
GLS(Octanoyl)FLSP-NH2 (N-terminus assumed; SMILES CCCCCCCC(=O)OC[C@H](NC(=O)[C@H](CC(C)C)NC(=O)CN)C(=O)N[C@@H](Cc1ccccc1)C(=O)N[C@@H](CC(C)C)C(=O)N[C@@H](CO)C(=O)N1CCC[C@H]1C(N)=O) [[Leu^2]-Ghrelin (1-7)-amide],Ca-releasing activity EC50,[9],42 nM
GSS(Octyl)FLSP-NH2 (N-terminus assumed; SMILES CCCCCCCCOC[C@H](NC(=O)[C@H](CO)NC(=O)CN)C(=O)N[C@@H](Cc1ccccc1)C(=O)N[C@@H](CC(C)C)C(=O)N[C@@H](CO)C(=O)N1CCC[C@H]1C(N)=O) [[Ser^3(Octyl)]-Ghrelin (1-7)-amide],Ca-releasing activity EC50,[10],5.8 nM
"GSS(Octyl)[dF]LSP-NH2 [[Ser^3(Octyl),^DPhe^4]-Ghrelin (1-7)-amide]",Ca-releasing activity EC50,[10],2200 nM
GS[dS](Octyl)FLSP-NH2 [[^DSer^3(Octyl)]-Ghrelin (1-7)-amide],Ca-releasing activity EC50,[10],> 10000 nM
"GS[dS](Octyl)[dF]LSP-NH2 [[^DSer^3(Octyl),^DPhe^4]-Ghrelin (1-7)-amide]",Ca-releasing activity EC50,[10],> 10000 nM
GSK(Octanoyl)FLSPEHQRVQQRKESKKPPAKLQPR [[Lys^3(Octanoyl)]-hGhrelin],Activity EC50,[11],32 nM
